Measurements published in publication PMC6443806 (Scientific Reports, 2019).

Tests used:
His54 = His54 (UniProt position 515, KNAVRHNLSLA); test: stability (GdmCl equilibrium unfolding followed by intrinsic Trp fluorescence) with Wyman-Tanford linkage analysis; details: 37 °C, Not stated for the unfolding buffer (standard buffer contains 150 mM NaCl). GdmCl 0-6 M in the unfolding series., buffer at different pH values (composition not restated; standard buffer is 20 mM HEPES, 150 mM NaCl, 2 mM β-mercaptoethanol) supplemented with GdmCl, DNA-free
His59 [1] = target: T1, His59 (UniProt position 520, HNLSLHKCFVR); test: as above; details: 37 °C, Not stated for the unfolding buffer (standard buffer contains 150 mM NaCl). GdmCl 0-6 M in the unfolding series., buffer at different pH values (composition not restated; standard buffer is 20 mM HEPES, 150 mM NaCl, 2 mM β-mercaptoethanol) supplemented with GdmCl, DNA-free
His59 [2] = target: T1, His59; test: kinetics (SEC-monitored dimer dissociation) with Wyman-Tanford linkage analysis; details: 37 °C, 150 mM NaCl, standard buffer (20 mM HEPES, 150 mM NaCl, 2 mM β-mercaptoethanol) adjusted to different pH values, DNA-free
[3] = target: forkhead domain of human FoxP1, H59A mutant (human); test: SEC; isolated dimer diluted to 5 μM in standard buffer (20 mM HEPES, 150 mM NaCl, 2 mM β-mercaptoethanol) at pH 5.0, 37 °C, aliquots over 2 h on Superdex 75; dimer to monomers; Kd from the equilibrium dimer fraction, koff from a single exponential decay, kon derived from Kd = koff/kon
[4] = target: forkhead domain of human FoxP1, H59A mutant (human); test: SEC; isolated dimer diluted to 5 μM in standard buffer (20 mM HEPES, 150 mM NaCl, 2 mM β-mercaptoethanol) at pH 6.0, 37 °C, aliquots over 2 h on Superdex 75; dimer to monomers; Kd from the equilibrium dimer fraction, koff from a single exponential decay, kon derived from Kd = koff/kon
[5] = target: forkhead domain of human FoxP1, H59A mutant (human); test: SEC; isolated dimer diluted to 5 μM in standard buffer (20 mM HEPES, 150 mM NaCl, 2 mM β-mercaptoethanol) at pH 7.8, 37 °C, aliquots over 2 h on Superdex 75; dimer to monomers; Kd from the equilibrium dimer fraction, koff from a single exponential decay, kon derived from Kd = koff/kon
[6] = target: the molecule itself; test: SEC; isolated dimer diluted to 5 μM in standard buffer (20 mM HEPES, 150 mM NaCl, 2 mM β-mercaptoethanol) at pH 6.0, 37 °C, aliquots over 2 h on Superdex 75; dimer to monomers; Kd from the equilibrium dimer fraction, koff from a single exponential decay, kon derived from Kd = koff/kon
[7] = target: the molecule itself; test: SEC; isolated dimer diluted to 5 μM in standard buffer (20 mM HEPES, 150 mM NaCl, 2 mM β-mercaptoethanol) at pH 5.0, 37 °C, aliquots over 2 h on Superdex 75; dimer to monomers; Kd from the equilibrium dimer fraction, koff from a single exponential decay, kon derived from Kd = koff/kon
[8] = target: the molecule itself; test: SEC; isolated dimer diluted to 5 μM in standard buffer (20 mM HEPES, 150 mM NaCl, 2 mM β-mercaptoethanol) at pH 7.8, 37 °C, aliquots over 2 h on Superdex 75; dimer to monomers; Kd from the equilibrium dimer fraction, koff from a single exponential decay, kon derived from Kd = koff/kon
[9] = target: the molecule itself; test: SEC; isolated dimer diluted to 5 μM in standard buffer (20 mM HEPES, 150 mM NaCl, 2 mM β-mercaptoethanol) at pH 7.0, 37 °C, aliquots over 2 h on Superdex 75; dimer to monomers; Kd from the equilibrium dimer fraction, koff from a single exponential decay, kon derived from Kd = koff/kon
[10] = target: the molecule itself; test: SEC; isolated dimer diluted to 5 μM in standard buffer (20 mM HEPES, 150 mM NaCl, 2 mM β-mercaptoethanol) at pH 5.5, 37 °C, aliquots over 2 h on Superdex 75; dimer to monomers; Kd from the equilibrium dimer fraction, koff from a single exponential decay, kon derived from Kd = koff/kon
[11] = monomeric folding intermediate (I)

Forkhead box protein P1 (FoxP1), forkhead DNA-binding domain, H59A mutant (Homo sapiens; H59A)
pKa (His54; [11]): 5.3
pKa (His54; unfolded state (U)): 5.9

Forkhead box protein P1 (FoxP1), forkhead DNA-binding domain, wild type (Homo sapiens)
pKa (His59 [1]; [11]): 5.7
pKa (His59 [1]; unfolded state (U)): 7.7
pKa (His59 [2]; domain-swapped dimer (D)): 5.5
pKa (His59 [2]; monomer (M)): 7.3
pKa (His59 [2]; transition state (‡) for domain swapping): 5.5

forkhead domain of human FoxP1, H59A mutant (domain or fragment)
Kd [3]: 7.9 µM
koff [3]: 0.000988 s⁻¹
kon [3]: 125 M⁻¹ s⁻¹
Kd [4]: 5.9 µM
koff [4]: 0.000628 s⁻¹
kon [4]: 107 M⁻¹ s⁻¹
Kd [5]: 7.5 µM
koff [5]: 0.000723 s⁻¹
kon [5]: 96.7 M⁻¹ s⁻¹

B1: forkhead domain of human FoxP1, wild type (domain or fragment)
chain: AEVRPPFTYASLIRQAILESPEKQLTLNEIYNWFTRMFAYFRRNAATWKNAVRHNLSLHKCFVRVENVKGAVWTVDEVEFQKRRPQK
Kd [6]: 3.7 ± 0.3 µM
koff [6]: 0.000553 s⁻¹
kon [6]: 150 M⁻¹ s⁻¹
Kd [7]: 31.2 ± 0.3 µM
koff [7]: 0.00235 s⁻¹
kon [7]: 58.3 M⁻¹ s⁻¹
Kd [8]: 0.6 ± 0.1 µM
koff [8]: 0.00106 s⁻¹
kon [8]: 1790 M⁻¹ s⁻¹
Kd [9]: 0.8 ± 0.1 µM
koff [9]: 0.00113 s⁻¹
kon [9]: 1340 M⁻¹ s⁻¹
Kd [10]: 13.1 ± 0.2 µM
koff [10]: 0.000675 s⁻¹
kon [10]: 51.7 M⁻¹ s⁻¹
